In experiment [1] the test system is DEVD-pNA hydrolysis activity in 293 cell cytosolic extracts. Kind of experiment: Cytochrome c/dATP-induced caspase activation (DEVD hydrolysis) in 293 cell cytosolic extracts. It counts as biochemical, human. As to the method: Cells were washed with ice cold buffer A (20 mM Hepes (pH 7.5), 10 mM KCl, 1.5 mM MgCl2, 1 mM EDTA, 1 mM DTT and 0.1 mM PMSF) and suspended in 1 vol buffer A, then incubated on ice for 20 min. 293 cells were disrupted by passage 15× through a 26 gauge needle and Jurkat T cells were disrupted by dounce homogenization in 2 ml using 15 strokes with a pestle B. Cell extracts (10–15 mg total protein/ml) were clarified by centrifugation at 16,000×g for 30 min, then the NaCl concentration was increased by 50 mM. Cytosolic fractions were used immediately or stored frozen at −80° C.
Caspase activity was assayed by release of either 7-amino-4-trifluoromethyl-coumarin (AFC) or p-nitroanilide (pNA) from benzylyoxycarbonyl-DEVD (SEQ ID NO: 2) or benzylyoxycarbonyl-YVAD (SEQ ID NO: 3) synthetic peptides using a Molecular Devices Spectromax 340 for AFC labeled peptides or Perkin/Elmer LS50B for pNA labeled peptides (see Example II; see, also, Zhou et al., supra, 1997). Cytosolic extracts from 293 cells or Jurkat T cells were used directly (negative control) or were treated with 1 μM cytochrome c and 1 mM dATP or with cytochrome c, dATP and 0.2 μM GST-XIAP. Additional control reactions were performed by substituting 2 μM GST-Bcl-2, GST-Bax, GST-NM23 or GST-CD40 cytosolic domain, or 5 μM His6-S5a protein for GST-XIAP. DEVD-pNA hydrolysis was measured at various times and multiple experiments were performed using several different GST-XIAP preparations.

Experiment [2] has as its target T1, caspase-3 (Homo sapiens, UniProt P42574).
T1 construct: to produce the 17–20 kDa mature, fully processed large subunit of the active caspase-3 enzyme; a smaller, fully processed, subunit of about 11 kDa; His6; made in house; host or cells: E. coli BL21(DE3)pLysS
T1 sequence (P42574 29-175 limits assumed): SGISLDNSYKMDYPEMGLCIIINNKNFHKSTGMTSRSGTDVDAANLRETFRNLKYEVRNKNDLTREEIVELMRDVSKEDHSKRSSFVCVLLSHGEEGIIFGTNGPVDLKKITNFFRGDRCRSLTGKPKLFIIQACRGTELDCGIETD
T1 sequence (P42574 176-277 limits assumed): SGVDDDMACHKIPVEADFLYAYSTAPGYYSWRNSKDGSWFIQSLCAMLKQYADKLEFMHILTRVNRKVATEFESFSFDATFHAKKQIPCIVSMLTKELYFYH
Kind of experiment: GST pull-down binding to caspase-3. The note with it: glutathione-Sepharose beads, immunoblot. The protocol:
Following incubation at 4° C. for 60 min, the beads were removed by centrifugation and washed twice with 100 vol 50 mM Tris (pH 7.5), 150 mM KCl, 2 mM DTT and 0.025% Triton-X100, then subjected to SDS-PAGE and immunoblot assay (see Example I.B.3).
(In western blotting, separated proteins are transferred to a membrane and probed.)

Experiment [3] deals with pro-caspase-9. In words: Cytochrome c-induced processing of pro-caspase-9 in 293 cytosolic extracts. It counts as biochemical, human. The note with it: for cytochrome c-induced pro-caspase-9 processing (in words): 0.2 μM GST-IAP, 30 min at 30° C. As to the method:
Cytochrome c induced processing of pro-caspase-9 was subsequently monitored by SDS-PAGE and autoradiography.
Pro-caspase-9 inhibition by Ac-DEVD-fmk, zVAD-fmk and XIAP was compared as follows. In vitro translated ^35S-labeled pro-caspase-9 was added to cytosolic extracts from 293 cells containing 10 μM cytochrome c and 1 mM dATP. Samples were incubated at 30° C. for 30 minutes in the presence of the indicated concentrations of inhibitors. Proteins were separated on SDS-PAGE gels, dried directly, and exposed to film.

In experiment [4] the target is T2, pro-caspase-9 (Homo sapiens, UniProt P55211).
T2 construct: in vitro translated ^35S-labeled pro-caspase-9 and Apaf-1 were incubated individually or together; His6; made in house; host or cells: coupled in vitro transcription/translation in reticulocyte lysate (TNT kit, Promega)
T2 sequence (P55211 1-416): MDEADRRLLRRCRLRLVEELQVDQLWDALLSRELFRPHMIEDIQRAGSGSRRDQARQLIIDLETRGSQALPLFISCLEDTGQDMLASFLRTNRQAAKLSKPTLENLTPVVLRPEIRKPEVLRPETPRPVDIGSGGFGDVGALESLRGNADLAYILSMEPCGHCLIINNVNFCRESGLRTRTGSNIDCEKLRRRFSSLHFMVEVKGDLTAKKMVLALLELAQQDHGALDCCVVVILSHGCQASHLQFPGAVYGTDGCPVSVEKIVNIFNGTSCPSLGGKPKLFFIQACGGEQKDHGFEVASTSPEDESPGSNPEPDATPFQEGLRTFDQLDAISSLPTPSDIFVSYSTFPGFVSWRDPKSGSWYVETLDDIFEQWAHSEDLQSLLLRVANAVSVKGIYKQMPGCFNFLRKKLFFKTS
In words: GST pull-down binding of in vitro translated pro-caspase-9. The note with it: about 2 μM GST protein on glutathione-Sepharose.
Procedure: After extensive washing, bound proteins were analyzed by SDS-PAGE and autoradiography. As a positive control, 1.5 μl of the in vitro translated reaction (IVT) was analyzed.

Experiment [5] deals with T3, caspase-9 (Homo sapiens, UniProt P55211).
T3 construct: Full length N-terminally tagged caspase-9 was subcloned from pcDNA3; His6 (N); made in house; host or cells: E. coli BL21 (DE3), vector pET-23d
T3 sequence (P55211 1-315 limits assumed): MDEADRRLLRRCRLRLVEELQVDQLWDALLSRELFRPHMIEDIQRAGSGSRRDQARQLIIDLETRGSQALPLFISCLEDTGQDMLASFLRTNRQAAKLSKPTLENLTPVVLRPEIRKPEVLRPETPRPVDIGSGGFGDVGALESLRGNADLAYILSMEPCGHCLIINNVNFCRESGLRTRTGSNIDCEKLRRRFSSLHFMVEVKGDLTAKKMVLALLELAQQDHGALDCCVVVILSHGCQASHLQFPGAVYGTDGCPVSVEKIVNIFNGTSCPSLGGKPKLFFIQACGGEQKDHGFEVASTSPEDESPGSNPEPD
T3 sequence (P55211 331-416 limits assumed): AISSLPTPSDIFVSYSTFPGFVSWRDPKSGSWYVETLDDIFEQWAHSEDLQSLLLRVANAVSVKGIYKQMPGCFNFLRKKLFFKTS
In words: Inhibition of purified recombinant active caspase-9. It counts as biochemical. The note with it: for pro-caspase-3 activation by caspase-9, coupled Ac-DEVD-AFC hydrolysis (in words): coupled reaction. As to the method:
Caspase-9 activity was measured by monitoring the processing and activity of the purified recombinant zymogen form of caspase-3 that was produced in bacteria. Active caspase-9 (0.1 μM) was incubated with pro-caspase-3 (0.5 μM) in the presence or absence of GST-XIAP (0.1 μM). Experiments were performed with two independent preparations of active caspase-9. Samples were subsequently analyzed for pro-caspase-3 processing by immunoblot analysis. Asterisks denote the processed forms of the large subunit of caspase-3. Samples were simultaneously assayed for release of the AFC fluorophore from DEVD-AFC. Activity was arbitrarily designated as 100% for one of the two preparations of active caspase-9.
For the results shown in FIG. 7C, pro-caspase-9 was in vitro translated in reticulocyte lysates in the presence of ^35S-L-methionine and then purified by metal chromatography. […] Proteins were analyzed by SDS-PAGE and autoradiography. An asterisk denotes the processed form of caspase-9.

With “c-IAP-2: cellular IAP protein c-IAP-2/HIAP-1/hMIHC, recombinant GST fusion or myc-tagged”, in experiment [1] (3 μM, extracts activated 30 min with cytochrome c and dATP), the “DEVD hydrolysis in activated 293 cell cytosolic extracts (in words)” value was “inhibited DEVD hydrolysis”. Further, the “binding of caspase-3 (in words)” value in experiment [2] is on record as “bound”. Further, the “cytochrome c-induced pro-caspase-9 processing (in words)” value in experiment [3] was “inhibited pro-caspase-9 processing, albeit to a lesser extent”. The “association with in vitro translated pro-caspase-9 (in words)” value in experiment [4] is “associated with pro-caspase-9”. The “pro-caspase-3 activation by caspase-9, coupled Ac-DEVD-AFC hydrolysis (in words)” value in experiment [5] is listed as “efficiently inhibited”.
Take “XIAP: X chromosome linked inhibitor of apoptosis protein (Genbank U32974), used mostly as recombinant GST fusion or expressed from plasmid”: the “DEVD-pNA hydrolysis, ΔA405 after 15 min” value in experiment [1] (293 extracts + cytochrome c/dATP, GST-XIAP 0.2 μM, GST controls 2 μM, His6-S5a 5 μM, untreated ≈0.01) is reported as “approximately the same as untreated control extracts”. Further, the “reduction of cytochrome c/dATP-induced DEVD-pNA hydrolyzing activity” value in experiment [1] (extracts of cells transfected with pcDNA3-XIAP versus control plasmid) is reported as “greater than 50%”. Also, in experiment [2], the “binding of caspase-3 (in words)” value is listed as “Specific binding”. Moreover, in experiment [3], the “potency relative to baculovirus p35 protein at inhibiting cytochrome c-induced processing of pro-caspase-9” value was “about 5 fold” and the “cytochrome c-induced pro-caspase-9 processing (in words)” value is reported as “nearly completely abolished”. In experiment [3] (10 μM cytochrome c, 1 mM dATP, 30° C., 30 min), the “concentration to completely abolish cytochrome c-mediated processing of pro-caspase-9” value is reported as “less than 0.2 μM”. For the same substance, the “association with in vitro translated pro-caspase-9 (in words)” value in experiment [4] is recorded as “associated with pro-caspase-9”. The “processing of 35S-pro-caspase-9 by active caspase-9 (in words)” value in experiment [5] (0.1 μM caspase-9, 0.1 μM GST-XIAP, 30° C., 1 hr) is listed as “potently inhibited”. Further, the “pro-caspase-3 activation by caspase-9, coupled Ac-DEVD-AFC hydrolysis (in words)” value in experiment [5] is on record as “efficiently inhibited”. The “cleavage of pro-caspase-3 by caspase-9, immunoblot (in words)” value in experiment [5] (equimolar to caspase-9 (0.1 μM), pro-caspase-3 0.5 μM) is “strongly inhibited”.

Values taken from patent US7192728B2, “Screening assays for agents that alter inhibitor of apoptosis (IAP) protein regulation of caspase activity” (The Burnham Institute, priority 1997, dated 2007).
